Molecular target: FGFR3
Assay: cell-based or functional assay

Substance | concentration at which FDCP-FGFR3 cells proliferate (XTT) [ng/mL] | concentration inducing a growth response of FDCP-FGFR3 cells (XTT) [ng/mL]
FGF4^Δ54N165R (from UniProt P08620 55-206) (ligand) | > 0.1 | –
FGF4^Δ78 (from UniProt P08620 79-206) (ligand) | – | > 25

Reference: patent publication US20110053841A1
